Results: article PMC6842113 (Neuron, 2019)
Blank lines part the entries; values can stand above or below the binder they belong to.

B3: Stg_CT WT (domain or fragment, mouse, UniProt O88602 203-323, looked up)
chain: DRHKQLRATARATDYLQASAITRIPSYRYRYQRRSRSSSRSTEPSHSRDASPVGVKGFNTLPSTEISMYTLSRDPLKAATTPTATYNSDRDNSFLQVHNCIQKDSKDSLHANTANRRTTPV

How the values were obtained:
Stg_CT WT = target: B3; assay: ITC
PSD-95 NPDZ12 = PSD-95 NPDZ12 (UniProt P78352-1 1-247); assay: NMR titration
PSD-95 PSG = PSD-95 PSG (UniProt P78352-1 309-724); assay: ITC

B1: PSD-95 PDZ2 (domain or fragment, UniProt P78352-1 155-247, looked up)
chain: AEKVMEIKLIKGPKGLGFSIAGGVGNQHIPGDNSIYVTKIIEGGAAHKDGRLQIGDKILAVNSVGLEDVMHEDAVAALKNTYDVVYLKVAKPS
- binding result (Stg_CT WT): binds

- binding result (PSD-95 NPDZ12): binds
B2: Stg_CT Δ4 (domain or fragment, mouse, UniProt O88602 203-319, looked up)
chain: DRHKQLRATARATDYLQASAITRIPSYRYRYQRRSRSSSRSTEPSHSRDASPVGVKGFNTLPSTEISMYTLSRDPLKAATTPTATYNSDRDNSFLQVHNCIQKDSKDSLHANTANRR

Binder: B3
- Kd (PSD-95 PSG): ~5.3 µM
